Reference: patent US20170306050A1

Tests used:
Experiment in all cases: cell-based or functional assay
[1] = molecular target: T1, CXCL9
T1 sequence (Q07325 23-125, species assumed, looked up): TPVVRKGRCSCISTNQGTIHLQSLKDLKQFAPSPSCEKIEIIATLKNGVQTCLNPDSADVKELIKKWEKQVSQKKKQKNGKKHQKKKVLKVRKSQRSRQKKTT

[2] = molecular target: CXCL10
[3] = molecular target: T2, CXCL11
T2 sequence (O14625 22-94, species assumed, looked up): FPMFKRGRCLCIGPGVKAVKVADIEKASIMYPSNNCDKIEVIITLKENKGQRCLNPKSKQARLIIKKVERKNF

Measured: in vitro enzymatic cleavage; T cell migration assay

Sequence of MMP9 (Example 10, in vitro enzymatic analyses) (enzyme) (P41245 108-730): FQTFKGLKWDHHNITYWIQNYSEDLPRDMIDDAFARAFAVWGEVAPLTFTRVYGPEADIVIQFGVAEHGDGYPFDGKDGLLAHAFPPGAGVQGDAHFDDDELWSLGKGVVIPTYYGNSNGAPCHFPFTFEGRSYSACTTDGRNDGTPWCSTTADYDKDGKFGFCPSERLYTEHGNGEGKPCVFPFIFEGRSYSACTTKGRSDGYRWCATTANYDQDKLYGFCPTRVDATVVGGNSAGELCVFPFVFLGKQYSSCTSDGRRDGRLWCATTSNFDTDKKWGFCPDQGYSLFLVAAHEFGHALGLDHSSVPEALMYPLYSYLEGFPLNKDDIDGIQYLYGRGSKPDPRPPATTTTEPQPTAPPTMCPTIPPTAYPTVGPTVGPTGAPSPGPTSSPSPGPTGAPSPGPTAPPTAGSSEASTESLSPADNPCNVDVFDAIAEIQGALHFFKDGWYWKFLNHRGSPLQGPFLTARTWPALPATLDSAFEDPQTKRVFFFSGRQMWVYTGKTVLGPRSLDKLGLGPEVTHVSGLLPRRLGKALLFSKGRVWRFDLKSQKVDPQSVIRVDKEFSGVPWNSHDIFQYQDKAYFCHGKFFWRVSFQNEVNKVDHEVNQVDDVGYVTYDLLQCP
Sequence of CXCL10 (P02778 22-98): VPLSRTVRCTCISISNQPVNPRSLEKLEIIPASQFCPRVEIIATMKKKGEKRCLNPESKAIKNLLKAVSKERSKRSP

MMP9 (Example 10, in vitro enzymatic analyses) (enzyme)
< 88%: all assays above
